The values that follow come from patent publication US20190367903, “OLIGONUCLEOTIDE PROBES AND USES THEREOF” (CARIS SCIENCE, INC., published 2019).

The target in this data set is T1, EpCAM (UniProt P16422 P16422:24-265).
T1 sequence: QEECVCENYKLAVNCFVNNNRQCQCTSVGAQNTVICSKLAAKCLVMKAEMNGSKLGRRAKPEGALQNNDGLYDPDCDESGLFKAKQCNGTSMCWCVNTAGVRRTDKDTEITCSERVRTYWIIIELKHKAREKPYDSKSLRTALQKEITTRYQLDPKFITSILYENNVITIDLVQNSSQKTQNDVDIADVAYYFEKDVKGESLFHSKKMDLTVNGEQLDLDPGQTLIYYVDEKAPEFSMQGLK
The data set is described as follows: stated identified by library screening to recognize EpCAM, no data shown.

B1: CAR003 (ssRNA)
RNA: AUCCAGAGUGACGCAGCAGUCUUUUCUGAUGGACACGUGGUGGUCUAGUAUCACUAAGCCACCGUGUCCA
Regarding B1, the binding result is reported as “binds”.
